According to patent US20160272683A1 (Novo Nordisk, published 2016):
One block for each binder: values may come before it. Numbered stars: 1 amine (or outer) side, 2 acyl side, 3 side chain; on linkers, the order of the positions; unused ones are H or OH. Side chains are listed from the residue outwards. Ends that are not written are not given here. * marks the point of attachment. C20 diacid = O=C(O)CCCCCCCCCCCCCCCCCCC(=O)*; C18 diacid = O=C(O)CCCCCCCCCCCCCCCCC(=O)*; γGlu = O=C(O)[C@H](CCC(=O)[*:2])N[*:1]

Target: T1, human calcitonin receptor (human, UniProt P30988 25-474)
T1 construct: whole, on cells; also called hCT-R; hCTR
T1 sequence (looked up): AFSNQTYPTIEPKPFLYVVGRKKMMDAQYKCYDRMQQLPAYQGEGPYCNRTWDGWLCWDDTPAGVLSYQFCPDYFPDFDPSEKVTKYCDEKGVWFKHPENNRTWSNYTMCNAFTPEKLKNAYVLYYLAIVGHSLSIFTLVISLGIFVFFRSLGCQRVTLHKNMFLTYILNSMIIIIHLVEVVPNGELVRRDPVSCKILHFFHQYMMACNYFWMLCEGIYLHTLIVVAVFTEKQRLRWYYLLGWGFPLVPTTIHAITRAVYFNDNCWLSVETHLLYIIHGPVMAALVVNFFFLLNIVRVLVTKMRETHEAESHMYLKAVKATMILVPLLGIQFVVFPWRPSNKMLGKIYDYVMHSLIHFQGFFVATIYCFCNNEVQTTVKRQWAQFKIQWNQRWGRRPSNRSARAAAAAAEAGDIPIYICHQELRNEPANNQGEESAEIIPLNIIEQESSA
Experiment: whole-cell competition vs 125I-human calcitonin (Assay VIIa)
Method in brief: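 BHK tk'ts 13 cells stably co-expressing human calcitonin receptor and a CRE-luciferase reporter, seeded overnight at 37 °C. Bound tracer counted by scintillation after cold HBSS washes and NaOH/SDS lysis; IC₅₀ from one-site competition fit taken as receptor affinity.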

B1: [N-terminal(C20 diacid-gGlu), des1, 4G, 15T, 21E, 23Y, 30S, 31G, 32T, 33Y]mimylin (peptide)
peptide: {C20 diacid-γGlu}-ASGLSTAALGRLSTELHELETYPRTETGSGTY-NH2
SMILES: CC(C)C[C@H](NC(=O)CNC(=O)[C@H](CO)NC(=O)[C@H](C)NC(=O)CC[C@H](NC(=O)CCCCCCCCCCCCCCCCCCC(=O)O)C(=O)O)C(=O)N[C@@H](CO)C(=O)N[C@H](C(=O)N[C@@H](C)C(=O)N[C@@H](C)C(=O)N[C@@H](CC(C)C)C(=O)NCC(=O)N[C@@H](CCCNC(=N)N)C(=O)N[C@@H](CC(C)C)C(=O)N[C@@H](CO)C(=O)N[C@H](C(=O)N[C@@H](CCC(=O)O)C(=O)N[C@@H](CC(C)C)C(=O)N[C@@H](Cc1c[nH]cn1)C(=O)N[C@@H](CCC(=O)O)C(=O)N[C@@H](CC(C)C)C(=O)N[C@@H](CCC(=O)O)C(=O)N[C@H](C(=O)N[C@@H](Cc1ccc(O)cc1)C(=O)N1CCC[C@H]1C(=O)N[C@@H](CCCNC(=N)N)C(=O)N[C@H](C(=O)N[C@@H](CCC(=O)O)C(=O)N[C@H](C(=O)NCC(=O)N[C@@H](CO)C(=O)NCC(=O)N[C@H](C(=O)N[C@@H](Cc1ccc(O)cc1)C(N)=O)[C@@H](C)O)[C@@H](C)O)[C@@H](C)O)[C@@H](C)O)[C@@H](C)O)[C@@H](C)O
- IC50: 0.547 nM

B2: [des1, 4G, 15Q, 21Q, 23Y, 30S, 31K(C20 diacid-gGlu), 32T, 33Y]mimylin (peptide)
peptide: ASGLSTAALGRLSQELHELQTYPRTETGSK([γGlu-C20 diacid])TY-NH2
modifications: N-terminus assumed
SMILES: CC(C)C[C@H](NC(=O)CNC(=O)[C@H](CO)NC(=O)[C@H](C)N)C(=O)N[C@@H](CO)C(=O)N[C@H](C(=O)N[C@@H](C)C(=O)N[C@@H](C)C(=O)N[C@@H](CC(C)C)C(=O)NCC(=O)N[C@@H](CCCNC(=N)N)C(=O)N[C@@H](CC(C)C)C(=O)N[C@@H](CO)C(=O)N[C@@H](CCC(N)=O)C(=O)N[C@@H](CCC(=O)O)C(=O)N[C@@H](CC(C)C)C(=O)N[C@@H](Cc1c[nH]cn1)C(=O)N[C@@H](CCC(=O)O)C(=O)N[C@@H](CC(C)C)C(=O)N[C@@H](CCC(N)=O)C(=O)N[C@H](C(=O)N[C@@H](Cc1ccc(O)cc1)C(=O)N1CCC[C@H]1C(=O)N[C@@H](CCCNC(=N)N)C(=O)N[C@H](C(=O)N[C@@H](CCC(=O)O)C(=O)N[C@H](C(=O)NCC(=O)N[C@@H](CO)C(=O)N[C@@H](CCCCNC(=O)CC[C@H](NC(=O)CCCCCCCCCCCCCCCCCCC(=O)O)C(=O)O)C(=O)N[C@H](C(=O)N[C@@H](Cc1ccc(O)cc1)C(N)=O)[C@@H](C)O)[C@@H](C)O)[C@@H](C)O)[C@@H](C)O)[C@@H](C)O
- IC50: 1.27 nM

B5: [N-terminal(C20 diacid-gGlu), des1, 4Q, 9V, 15Q, 16R, 19R, 21Q, 23Y, 27Q, 30S, 31Q, 32T, 33Y]mimylin (peptide)
peptide: {C20 diacid-γGlu}-ASQLSTAVLGRLSQRLHRLQTYPRTQTGSQTY-NH2
SMILES: CC(C)C[C@H](NC(=O)[C@H](CCCNC(=N)N)NC(=O)CNC(=O)[C@H](CC(C)C)NC(=O)[C@@H](NC(=O)[C@H](C)NC(=O)[C@@H](NC(=O)[C@H](CO)NC(=O)[C@H](CC(C)C)NC(=O)[C@H](CCC(N)=O)NC(=O)[C@H](CO)NC(=O)[C@H](C)NC(=O)CC[C@H](NC(=O)CCCCCCCCCCCCCCCCCCC(=O)O)C(=O)O)[C@@H](C)O)C(C)C)C(=O)N[C@@H](CO)C(=O)N[C@@H](CCC(N)=O)C(=O)N[C@@H](CCCNC(=N)N)C(=O)N[C@@H](CC(C)C)C(=O)N[C@@H](Cc1c[nH]cn1)C(=O)N[C@@H](CCCNC(=N)N)C(=O)N[C@@H](CC(C)C)C(=O)N[C@@H](CCC(N)=O)C(=O)N[C@H](C(=O)N[C@@H](Cc1ccc(O)cc1)C(=O)N1CCC[C@H]1C(=O)N[C@@H](CCCNC(=N)N)C(=O)N[C@H](C(=O)N[C@@H](CCC(N)=O)C(=O)N[C@H](C(=O)NCC(=O)N[C@@H](CO)C(=O)N[C@@H](CCC(N)=O)C(=O)N[C@H](C(=O)N[C@@H](Cc1ccc(O)cc1)C(N)=O)[C@@H](C)O)[C@@H](C)O)[C@@H](C)O)[C@@H](C)O
notes: also called Ex. #132
- IC50: 1.55 nM

B6: [N-terminal(C20 diacid-gGlu), des1, 2L, 4Q, 8L, 9V, 15Q, 16R, 19R, 21Q, 23Y, 27Q, 30S, 31Q, 32T, 33Y]mimylin (peptide)
peptide: {C20 diacid-γGlu}-LSQLSTLVLGRLSQRLHRLQTYPRTQTGSQTY-NH2
SMILES: CC(C)C[C@H](NC(=O)CC[C@H](NC(=O)CCCCCCCCCCCCCCCCCCC(=O)O)C(=O)O)C(=O)N[C@@H](CO)C(=O)N[C@@H](CCC(N)=O)C(=O)N[C@@H](CC(C)C)C(=O)N[C@@H](CO)C(=O)N[C@H](C(=O)N[C@@H](CC(C)C)C(=O)N[C@H](C(=O)N[C@@H](CC(C)C)C(=O)NCC(=O)N[C@@H](CCCNC(=N)N)C(=O)N[C@@H](CC(C)C)C(=O)N[C@@H](CO)C(=O)N[C@@H](CCC(N)=O)C(=O)N[C@@H](CCCNC(=N)N)C(=O)N[C@@H](CC(C)C)C(=O)N[C@@H](Cc1c[nH]cn1)C(=O)N[C@@H](CCCNC(=N)N)C(=O)N[C@@H](CC(C)C)C(=O)N[C@@H](CCC(N)=O)C(=O)N[C@H](C(=O)N[C@@H](Cc1ccc(O)cc1)C(=O)N1CCC[C@H]1C(=O)N[C@@H](CCCNC(=N)N)C(=O)N[C@H](C(=O)N[C@@H](CCC(N)=O)C(=O)N[C@H](C(=O)NCC(=O)N[C@@H](CO)C(=O)N[C@@H](CCC(N)=O)C(=O)N[C@H](C(=O)N[C@@H](Cc1ccc(O)cc1)C(N)=O)[C@@H](C)O)[C@@H](C)O)[C@@H](C)O)[C@@H](C)O)C(C)C)[C@@H](C)O
notes: also called Ex. #133
- IC50: 9.66 nM

B9: [N-terminal(C20 diacid-gGlu), 4Q, 9V, 15Q, 21Q, 23Y, 27G, 30S, 31G, 32T, 33Y]mimylin (peptide)
peptide: {C20 diacid-γGlu}-EASQLSTAVLGRLSQELHELQTYPRTGTGSGTY-NH2
SMILES: CC(C)C[C@H](NC(=O)[C@H](CCCNC(=N)N)NC(=O)CNC(=O)[C@H](CC(C)C)NC(=O)[C@@H](NC(=O)[C@H](C)NC(=O)[C@@H](NC(=O)[C@H](CO)NC(=O)[C@H](CC(C)C)NC(=O)[C@H](CCC(N)=O)NC(=O)[C@H](CO)NC(=O)[C@H](C)NC(=O)[C@H](CCC(=O)O)NC(=O)CC[C@H](NC(=O)CCCCCCCCCCCCCCCCCCC(=O)O)C(=O)O)[C@@H](C)O)C(C)C)C(=O)N[C@@H](CO)C(=O)N[C@@H](CCC(N)=O)C(=O)N[C@@H](CCC(=O)O)C(=O)N[C@@H](CC(C)C)C(=O)N[C@@H](Cc1c[nH]cn1)C(=O)N[C@@H](CCC(=O)O)C(=O)N[C@@H](CC(C)C)C(=O)N[C@@H](CCC(N)=O)C(=O)N[C@H](C(=O)N[C@@H](Cc1ccc(O)cc1)C(=O)N1CCC[C@H]1C(=O)N[C@@H](CCCNC(=N)N)C(=O)N[C@H](C(=O)NCC(=O)N[C@H](C(=O)NCC(=O)N[C@@H](CO)C(=O)NCC(=O)N[C@H](C(=O)N[C@@H](Cc1ccc(O)cc1)C(N)=O)[C@@H](C)O)[C@@H](C)O)[C@@H](C)O)[C@@H](C)O
- IC50: 0.796 nM

B10: [N-terminal(C20 diacid-gGlu), 2L, 4G, 8L, 9V, 15Q, 21Q, 23Y, 27G, 30S, 31G, 32T, 33Y]mimylin (peptide)
peptide: {C20 diacid-γGlu}-ELSGLSTLVLGRLSQELHELQTYPRTGTGSGTY-NH2
SMILES: CC(C)C[C@H](NC(=O)CNC(=O)[C@H](CO)NC(=O)[C@H](CC(C)C)NC(=O)[C@H](CCC(=O)O)NC(=O)CC[C@H](NC(=O)CCCCCCCCCCCCCCCCCCC(=O)O)C(=O)O)C(=O)N[C@@H](CO)C(=O)N[C@H](C(=O)N[C@@H](CC(C)C)C(=O)N[C@H](C(=O)N[C@@H](CC(C)C)C(=O)NCC(=O)N[C@@H](CCCNC(=N)N)C(=O)N[C@@H](CC(C)C)C(=O)N[C@@H](CO)C(=O)N[C@@H](CCC(N)=O)C(=O)N[C@@H](CCC(=O)O)C(=O)N[C@@H](CC(C)C)C(=O)N[C@@H](Cc1c[nH]cn1)C(=O)N[C@@H](CCC(=O)O)C(=O)N[C@@H](CC(C)C)C(=O)N[C@@H](CCC(N)=O)C(=O)N[C@H](C(=O)N[C@@H](Cc1ccc(O)cc1)C(=O)N1CCC[C@H]1C(=O)N[C@@H](CCCNC(=N)N)C(=O)N[C@H](C(=O)NCC(=O)N[C@H](C(=O)NCC(=O)N[C@@H](CO)C(=O)NCC(=O)N[C@H](C(=O)N[C@@H](Cc1ccc(O)cc1)C(N)=O)[C@@H](C)O)[C@@H](C)O)[C@@H](C)O)[C@@H](C)O)C(C)C)[C@@H](C)O
- IC50: 3.62 nM

More lines, in order of falling IC50, values ahead:

- IC50: 630 nM
B8: [C-terminal(-)]mimylin (peptide)
peptide: EASELSTAALGRLSAELHELATLPRTETGPESP-OH
notes: also called Ex. #135

- IC50: 42.4 nM
B7: [N-terminal(C18 diacid), C-terminal(-)]mimylin (peptide)
peptide: {C18 diacid}-EASELSTAALGRLSAELHELATLPRTETGPESP-OH

- IC50: 0.959 nM
B4: [des1, 2L, 4G, 9V, 15Q, 21Q, 23Y, 30S, 31Q, 32T, 33Y]mimylin (peptide)
peptide: LSGLSTAVLGRLSQELHELQTYPRTETGSQTY-NH2
notes: backbone without side chain

- IC50: 0.326 nM
B3: [N-terminal(C20 diacid-gGlu), des1, 9V, 15Q, 21Q, 23Y, 30S, 31G, 32T, 33Y]mimylin (peptide)
peptide: {C20 diacid-γGlu}-ASELSTAVLGRLSQELHELQTYPRTETGSGTY-NH2
SMILES: CC(C)C[C@H](NC(=O)[C@H](CCCNC(=N)N)NC(=O)CNC(=O)[C@H](CC(C)C)NC(=O)[C@@H](NC(=O)[C@H](C)NC(=O)[C@@H](NC(=O)[C@H](CO)NC(=O)[C@H](CC(C)C)NC(=O)[C@H](CCC(=O)O)NC(=O)[C@H](CO)NC(=O)[C@H](C)NC(=O)CC[C@H](NC(=O)CCCCCCCCCCCCCCCCCCC(=O)O)C(=O)O)[C@@H](C)O)C(C)C)C(=O)N[C@@H](CO)C(=O)N[C@@H](CCC(N)=O)C(=O)N[C@@H](CCC(=O)O)C(=O)N[C@@H](CC(C)C)C(=O)N[C@@H](Cc1c[nH]cn1)C(=O)N[C@@H](CCC(=O)O)C(=O)N[C@@H](CC(C)C)C(=O)N[C@@H](CCC(N)=O)C(=O)N[C@H](C(=O)N[C@@H](Cc1ccc(O)cc1)C(=O)N1CCC[C@H]1C(=O)N[C@@H](CCCNC(=N)N)C(=O)N[C@H](C(=O)N[C@@H](CCC(=O)O)C(=O)N[C@H](C(=O)NCC(=O)N[C@@H](CO)C(=O)NCC(=O)N[C@H](C(=O)N[C@@H](Cc1ccc(O)cc1)C(N)=O)[C@@H](C)O)[C@@H](C)O)[C@@H](C)O)[C@@H](C)O
